Reference: paper PMC5113810

Target: T1, DNA polymerase kappa core (hpol κ19-536) (Homo sapiens, UniProt Q9UBT6 19-536)
T1 sequence: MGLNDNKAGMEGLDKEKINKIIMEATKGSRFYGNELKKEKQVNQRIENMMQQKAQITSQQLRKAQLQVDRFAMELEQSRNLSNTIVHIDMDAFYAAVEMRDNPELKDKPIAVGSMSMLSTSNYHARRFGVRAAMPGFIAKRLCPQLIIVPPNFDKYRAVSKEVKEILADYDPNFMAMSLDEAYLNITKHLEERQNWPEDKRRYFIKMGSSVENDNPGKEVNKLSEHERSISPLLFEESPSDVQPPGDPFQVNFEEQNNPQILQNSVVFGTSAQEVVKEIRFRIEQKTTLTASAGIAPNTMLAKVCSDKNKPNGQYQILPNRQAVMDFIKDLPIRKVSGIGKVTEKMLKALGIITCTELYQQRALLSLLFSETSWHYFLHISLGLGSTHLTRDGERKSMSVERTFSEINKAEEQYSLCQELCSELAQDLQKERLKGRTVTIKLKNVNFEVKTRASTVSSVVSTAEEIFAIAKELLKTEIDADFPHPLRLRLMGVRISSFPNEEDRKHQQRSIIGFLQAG
Test: fluorescence polarization

B1: 11/28-mer non-G4 DNA (mixed)
DNA 1: ATCCTCCCCTA
DNA 2: TATGTGACTATGCTGGGTAGGGGAGGAT
Kd: 0.086 µM

B2: 11/28-mer G4 DNA (mixed)
DNA 1: ATCCTCCCCTA
DNA 2: TGGGTGGGTAGGGTGGGTAGGGGAGGAT
Kd: 0.015 µM
